Tests used:
Experiment in all cases: EMSA; EMSA as described previously (ref 55); buffer, salt, pH and temperature not given
Conditions in all cases: protein: recombinant; tags: FLAG; label: 32P
UNC-75(121-213) RRM2 = UNC-75(121-213) RRM2 (Caenorhabditis elegans, UniProt G5EE68 121-213)
UNC-75 = UNC-75 (Caenorhabditis elegans, UniProt G5EE68 1-514)
UNC-75(417-514) RRM3 = UNC-75(417-514) RRM3 (Caenorhabditis elegans, UniProt G5EE68 417-514)
UNC-75(1-114) RRM1 = UNC-75(1-114) RRM1 (Caenorhabditis elegans, UniProt G5EE68 1-114)
UNC-75(L431F) = UNC-75(L431F) (Caenorhabditis elegans, UniProt G5EE68 1-514, L431F)
ASD-1 = biological target: T1, ASD-1 (Caenorhabditis elegans, UniProt G5EEW7 1-404)
T1 sequence: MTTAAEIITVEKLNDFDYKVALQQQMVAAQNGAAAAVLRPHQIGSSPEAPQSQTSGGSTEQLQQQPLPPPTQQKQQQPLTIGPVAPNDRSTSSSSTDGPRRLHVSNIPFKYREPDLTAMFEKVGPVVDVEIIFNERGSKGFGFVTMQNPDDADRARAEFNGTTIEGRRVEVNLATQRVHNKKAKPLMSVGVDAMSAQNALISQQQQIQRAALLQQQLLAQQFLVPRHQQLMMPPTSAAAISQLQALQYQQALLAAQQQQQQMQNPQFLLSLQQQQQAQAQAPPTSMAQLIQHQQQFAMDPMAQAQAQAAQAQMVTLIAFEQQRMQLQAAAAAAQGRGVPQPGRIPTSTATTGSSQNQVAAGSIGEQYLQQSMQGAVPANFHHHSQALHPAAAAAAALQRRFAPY

FOX-1 = biological target: T2, FOX-1 (Caenorhabditis elegans, UniProt Q10572 1-429)
T2 sequence: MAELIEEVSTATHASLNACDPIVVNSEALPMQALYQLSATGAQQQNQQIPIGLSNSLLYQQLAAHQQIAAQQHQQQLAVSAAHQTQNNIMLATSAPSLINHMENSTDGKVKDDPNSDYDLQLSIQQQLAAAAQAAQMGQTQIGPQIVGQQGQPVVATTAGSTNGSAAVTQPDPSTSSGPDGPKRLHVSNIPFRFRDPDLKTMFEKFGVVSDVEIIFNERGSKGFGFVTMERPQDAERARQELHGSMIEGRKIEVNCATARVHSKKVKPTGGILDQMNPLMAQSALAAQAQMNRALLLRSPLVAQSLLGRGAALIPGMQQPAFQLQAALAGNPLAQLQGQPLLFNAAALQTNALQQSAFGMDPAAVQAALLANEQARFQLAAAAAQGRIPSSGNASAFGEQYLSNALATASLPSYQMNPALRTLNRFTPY

B1: Probe 2-1-1 (also printed 2-2-1) (ssRNA)
RNA: GGGAGAUUAGCACGCACCCGCCUUCUACUGUCCCGUUACUUUUUGUUGUGUUGU
B1: no binding (UNC-75(121-213) RRM2); binds (UNC-75); binds (UNC-75(417-514) RRM3). B1: no binding (UNC-75(1-114) RRM1); no binding (UNC-75(L431F)).

B2: Probe 2-1-1e (ssRNA)
RNA: GGGAGAUUAGCACGCACCCGCCUUCUACUGUCCCGUUACUUUUUAUUAUAUUAU
B2: no binding (UNC-75); no binding (UNC-75(417-514) RRM3).

B3: Probe 2-1-1d (ssRNA)
RNA: GGGAGAUUAGCACGCACCCGCCUUCUACUGUAAAAUUAAUUUUUGUUGUGUUGU
B3: binds (UNC-75); binds (UNC-75(417-514) RRM3).

B4: Probe 2-1-1b (ssRNA)
RNA: GGGAGAUUAGCACGCAAAAAAAUUCUACUGUCCCGUUACUUUUUGUUGUGUUGU
B4: binds (UNC-75); binds (UNC-75(417-514) RRM3).

B5: Probe 2-1-1a (ssRNA)
RNA: GGGAGAUUAAAAAAAACCCGCCUUCUACUGUCCCGUUACUUUUUGUUGUGUUGU
B5: binds (UNC-75); binds (UNC-75(417-514) RRM3).

B6: Probe 2-1-1c (ssRNA)
RNA: GGGAGAUUAGCACGCACCCGCCUUAUAAUAUCCCGUUACUUUUUGUUGUGUUGU
B6: binds (UNC-75); binds (UNC-75(417-514) RRM3).

B7: intron 7b WT probe (ssRNA)
RNA: GGGAGAGGUGAUGGGUAGUUUUUGCAUGAUUGU
B7: binds (ASD-1); binds (FOX-1).
